Target: RSV prefusion F (PR-DM) (Human respiratory syncytial virus A, …, stabilised)
Assay: cryo-EM structure

Row | Binder | stoichiometry N
1 | RSV-2245 Fab (Fab, V domains shown) VH: QVQLVQSGAEVKKPGASVKVSCKASGYSFSSFGVSWVRQAPGQGLEWLGWISAYNGNTDYAQKVQGRLTMTTDTSTNTAYMELRNLRSDDTAVYYCARDPPASAAAMFDYWGQGTLVTVSS VL: not shown | 3 copies of the Fab per F trimer
2 | RSV-3301 Fab (Fab, V domains shown) VH: QVQLVESGPTLVKPTQTLTLTCSFSGFSLSTRGVGVGWVRQPPGKALECLGFTYWDGDEYYSPSLRNRVTISKDTSKNQVVLTLTNMDPVDTATYFCVHSDLYDRGGYYLYYFDYWGQGTLVTVSS VL: DIRVTQSPSSLSASVGDRVTITCRASQTIASYVNWYQQKPGRAPELLIYAASILQSGVPSRFSGRGSGTDFTLTINGLQPEDFATYYCQQSYSSPWTFGQGTKVEIK | 3 copies of the Fab per F trimer

Source: publication PMC12684077 (Cell, 2025)
